Reference: PMC10377000, “LSPR-Based Aptasensor for Rapid Urinary Detection of NT-proBNP”

Molecular target: NT-proBNP (UniProt P16860)
Experiment: AuNP aggregation (LSPR, A750/A521), Hill fit; diluted urine; Hill n = 0.0751; NT-proBNP in 5 mM PBS pH 7.4; aptamer in 10 mM Tris-HCl, 0.2 mM EDTA (0.25 uM in assay); 15 min incubation; then citrate AuNPs and 40 uL 0.2 M NaCl; 25 C stated for CD sample only
Conditions: protein: commercial; antiparallel G4 proposed from CD

Sequence of NT-proBNP (P16860 27-134): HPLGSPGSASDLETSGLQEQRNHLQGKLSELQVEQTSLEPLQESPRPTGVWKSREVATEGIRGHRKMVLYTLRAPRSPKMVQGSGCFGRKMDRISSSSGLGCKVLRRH

B1: NT-proBNP aptamer (structured_DNA)
DNA: GGCAGGAAGACAAACAGGTCGTAGTGAAACTGTCCACCGTAGACCGGTTATCTGTTGGTCTGTGGTGCTGT
**Q.** How did the Kd turn out when B1 was run?
**A.** 2.71 nM
